For data set [1], the target named is RAD52 Y104pCMF Y104pCMF (Homo sapiens) (UniProt P43351). Description: single-molecule FRET. The settings on record: amino modifier C6 dT at last dT of gap.
Data set [2] addresses T1, RAD52 (Homo sapiens) (UniProt P43351).
T1 sequence: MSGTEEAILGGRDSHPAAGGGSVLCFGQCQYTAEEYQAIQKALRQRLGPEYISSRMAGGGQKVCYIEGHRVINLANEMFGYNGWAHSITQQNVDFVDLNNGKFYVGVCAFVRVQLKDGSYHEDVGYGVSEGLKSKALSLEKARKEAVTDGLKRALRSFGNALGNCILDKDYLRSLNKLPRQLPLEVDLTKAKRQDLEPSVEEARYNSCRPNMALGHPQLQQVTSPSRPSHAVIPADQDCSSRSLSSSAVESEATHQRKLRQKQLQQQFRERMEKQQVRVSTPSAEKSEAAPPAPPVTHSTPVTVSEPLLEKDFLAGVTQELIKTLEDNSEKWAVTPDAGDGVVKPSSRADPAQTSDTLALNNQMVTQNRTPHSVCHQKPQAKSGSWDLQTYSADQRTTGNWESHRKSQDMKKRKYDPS
As to the kind of experiment: single-molecule FRET. The settings on record: amino modifier C6 dT at last dT of gap.

For data set [3], the target named is RAD52 Y104pCMF Y104pCMF (Homo sapiens) (UniProt P43351). Description: FRET titration. The settings on record: scale: nM protein at maximum FRET.
Data set [4] has as its target T1, RAD52 (Homo sapiens). As to the kind of experiment: competition.

In the case of “TATGCTCTAAGCCATCCATGTATTTTTTTTTTTTTTTTTTTTTTTTTTTTCCCTAGATACCAGTAGATTCGGAAA / TTTCCGAATCTACTGGTATCTAGGG / TACATGGATGGCTTAGAGCATA [gapped DNA, 28-nt (dT) gap]”, the binding signal (% molecules in high FRET (wrapped) state) in data set [1] came to 43.5; in the data set with RAD52 (Homo sapiens) [2], 9.47.
In data set [3], “TTTTTTTTTTTTTTTTTTTTTTTTTTTTTT [Cy5-(dT)30-Cy3]” displayed a binding signal of 5.
For linearized PhiX174 RFI dsDNA, the binding signal (% ssDNA released at 150 nM nt dsDNA) with RAD52 (Homo sapiens) [4] is 95.1.

Source of the values: publication PMC3160658.
